Data set [1] concerns the target T1, Flavonifractor plautii Galactosaminidase (FpGalNase), full length, SEQ ID NO: 7, 9, 10 (Flavonifractor plautii, UniProt P0DTR5).
T1 sequence (P0DTR5 with tags, fused parts or gaps): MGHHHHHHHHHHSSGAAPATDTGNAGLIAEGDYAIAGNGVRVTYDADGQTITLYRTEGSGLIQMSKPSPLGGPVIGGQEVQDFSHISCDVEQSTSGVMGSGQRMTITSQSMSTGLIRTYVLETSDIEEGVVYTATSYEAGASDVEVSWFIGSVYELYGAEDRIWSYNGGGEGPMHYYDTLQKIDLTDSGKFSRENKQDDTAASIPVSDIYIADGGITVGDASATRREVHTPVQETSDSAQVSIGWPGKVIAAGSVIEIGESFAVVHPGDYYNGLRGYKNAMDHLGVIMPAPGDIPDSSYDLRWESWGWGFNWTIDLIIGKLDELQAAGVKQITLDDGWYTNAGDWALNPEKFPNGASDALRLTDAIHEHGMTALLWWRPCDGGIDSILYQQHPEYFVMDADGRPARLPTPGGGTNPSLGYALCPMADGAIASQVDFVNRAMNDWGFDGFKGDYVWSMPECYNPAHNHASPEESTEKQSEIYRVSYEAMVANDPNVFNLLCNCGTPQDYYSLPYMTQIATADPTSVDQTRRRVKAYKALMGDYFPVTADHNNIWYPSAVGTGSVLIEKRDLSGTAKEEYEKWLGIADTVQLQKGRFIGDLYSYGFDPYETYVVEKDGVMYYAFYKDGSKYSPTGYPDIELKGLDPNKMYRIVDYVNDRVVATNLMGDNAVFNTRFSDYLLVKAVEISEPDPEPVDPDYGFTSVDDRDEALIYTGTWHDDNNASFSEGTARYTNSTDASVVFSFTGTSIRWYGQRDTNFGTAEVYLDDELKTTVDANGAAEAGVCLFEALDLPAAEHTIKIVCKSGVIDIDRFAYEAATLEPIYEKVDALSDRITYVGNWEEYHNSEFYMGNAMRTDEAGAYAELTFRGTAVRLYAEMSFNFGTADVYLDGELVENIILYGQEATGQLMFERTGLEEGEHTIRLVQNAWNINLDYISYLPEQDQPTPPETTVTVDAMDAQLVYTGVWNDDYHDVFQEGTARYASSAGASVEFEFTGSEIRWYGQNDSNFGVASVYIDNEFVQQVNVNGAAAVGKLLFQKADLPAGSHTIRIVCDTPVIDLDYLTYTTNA
Put plainly: Kinetic parameters of FpGalNase full length (MU or pNP release). It is filed as biochemical. As to conditions: versus corresponding GalN-antigen. The procedure: (§1) All kinetic assays utilizing 4-methylumbelliferone as leaving group were performed through measurement of fluorescence. To avoid measurement errors based on the inner filter effect (Palmier 2007) standard curves were used to validate the linear range of the fluorophore.
(§2) Michaelis-Menten parameter was determined for GalN antigen subtype 1penta-MU and A antigen subtype 1penta-MU in 100 mM NaH2PO4, pH 7.4 at 37° C. Reaction was performed in 100 μl with 3.4 nM FpGalactosaminidase (5.31 nM FpGalNase_truncA) and 0.1 mg/mL SpHex, AfcA, 0.2 mg/mL BgaC and varying concentrations of substrate (5 μM-2 mM). The reactions were run as a series of four with controls (no FpGalactosaminidase) as duplicates. The fluorescence signal (365/435 nm) resulting from MU release by hydrolysis was monitored by Synergy H1™ plate reader [BioTek™] and converted to concentration using MU standard concentration curves determined under identical reaction conditions. Initial rates (μM/s) were determined and plotted in Grafit 7.0™ to determine the kinetic parameters.
kcat/KM parameter was determined for GalN antigen subtype 1/2/4tetra-MU and B antigen subtype 1tetra-MU at pH 7.4 and 37° C. […] Initial rates (μM/s) were determined and plotted in Grafit 7.0™ to determine the kcat/KM (s^−1*mM^−1) parameters. […]

The target of data set [2] is Flavonifractor plautii GalNAcDeacetylase (FpGalNAcDeAc), SEQ ID NO: 2, 4, 5 (Flavonifractor plautii, UniProt P0DTR4). As to conditions: 100 μM EDTA; 50 μM A antigen subtype 1penta-MU, pH 7.4, 37° C.
Chain of Flavonifractor plautii GalNAcDeacetylase (FpGalNAcDeAc), SEQ ID NO: 2, 4, 5 (P0DTR4 13-772, looked up, natural form): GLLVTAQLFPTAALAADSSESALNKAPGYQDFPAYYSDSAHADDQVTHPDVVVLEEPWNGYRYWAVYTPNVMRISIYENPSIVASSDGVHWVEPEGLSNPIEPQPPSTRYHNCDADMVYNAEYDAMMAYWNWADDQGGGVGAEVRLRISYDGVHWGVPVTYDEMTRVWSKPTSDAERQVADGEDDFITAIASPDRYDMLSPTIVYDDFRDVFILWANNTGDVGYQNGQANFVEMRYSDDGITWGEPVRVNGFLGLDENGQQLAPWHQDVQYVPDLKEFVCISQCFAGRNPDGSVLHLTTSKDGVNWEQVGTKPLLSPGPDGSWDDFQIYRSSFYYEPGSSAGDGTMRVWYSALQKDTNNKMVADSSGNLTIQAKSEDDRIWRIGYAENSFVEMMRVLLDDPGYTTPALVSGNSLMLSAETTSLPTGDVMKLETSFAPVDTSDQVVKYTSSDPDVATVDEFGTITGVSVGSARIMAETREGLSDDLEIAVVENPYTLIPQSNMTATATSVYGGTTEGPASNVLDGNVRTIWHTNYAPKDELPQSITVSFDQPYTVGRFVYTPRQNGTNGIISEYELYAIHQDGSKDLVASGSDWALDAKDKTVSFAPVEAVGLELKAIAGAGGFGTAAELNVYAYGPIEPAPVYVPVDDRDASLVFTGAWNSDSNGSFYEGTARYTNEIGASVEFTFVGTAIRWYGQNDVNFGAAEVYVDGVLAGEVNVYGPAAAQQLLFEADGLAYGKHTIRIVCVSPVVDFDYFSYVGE
Substrate in data set [3]: N[C@H]1[C@@H](Oc2ccc([N+](=O)[O-])cc2)O[C@H](CO)[C@H](O)[C@@H]1O
The data set can be described thus: Kinetic parameters of FpGalNase full length (MU or pNP release). It is filed as biochemical, Flavonifractor plautii. As to conditions: other: 100 mM NaH2PO4, pH 7.4, 37° C. The protocol:
as §1, §2
(§3) kcat/KM parameter was determined for GalN antigen subtype 1/2/4tetra-MU and B antigen subtype 1tetra-MU at pH 7.4 and 37° C. Reactions (total volume of 100 μL) were performed in black 96-plate wells and as coupled assays in 100 mM NaH2 PO4 (pH 7.4) with 8.63 nM FpGalactosaminidase, 0.1 mg/mL SpHex, BgaC (BgaA for Subtype 2), AfcA, varying concentrations of substrate (25 μM, 20 μM, 15 μM, 10 μM, 7.5 μM, 5 μM). The reactions were run as a series of four with controls (no FpGalactosaminidase) as duplicates. The fluorescence signal (365/435 nm) resulting from MU release by hydrolysis was monitored by Synergy H1™ plate reader [BioTek™] and converted to concentration using MU standard concentration curves determined under identical reaction conditions. Initial rates (μM/s) were determined and plotted in Grafit 7.0™ to determine the kcat/KM (s^−1*mM^−1) parameters.
(§4) Michaelis-Menten parameters were determined for GalN-α-pNP in clear 96-plate at 37° C. with 863.2 nM FpGalactosaminidase (in 100 mM NaH2PO4, pH 7.4) or 369.9 nM FpGH4 (in 50 mM Tris/HCl, pH 7.4, 100 μM NAD^+, 1 mM MnCl2) with varying concentrations of substrate (10 μM-5 mM) in a volume of 100 μl. The reactions were run as a series of three with two controls (no enzyme). The absorption (at 405 nm) resulting from pNP release by hydrolysis was monitored by Synergy H1™ plate reader [BioTek™] and converted to concentration using p-nitrophenol standard concentration curves determined under identical reaction conditions. Initial rates (μM/s) were determined and plotted in Grafit 7.0™ to determine the kinetic parameters.

Substrate in data set [4]: CC(=O)N[C@H]1[C@H](Oc2ccc3c(C)cc(=O)oc3c2)O[C@H](CO)[C@@H](O[C@@H]2O[C@H](CO)[C@H](O)[C@H](O[C@H]3O[C@H](CO)[C@H](O)[C@H](O)[C@H]3N)[C@H]2O[C@@H]2O[C@@H](C)[C@@H](O)[C@@H](O)[C@@H]2O)[C@@H]1O
The data set is described as above. It is filed as biochemical, Flavonifractor plautii. As to conditions: other: 100 mM NaH2PO4, pH 7.4, 37° C. The protocol: as §1, §2, §3, §4

Substrate in data set [5]: CC(=O)N[C@H]1[C@H](O[C@H]2[C@@H](O)[C@@H](CO)O[C@@H](Oc3ccc4c(C)cc(=O)oc4c3)[C@@H]2O)O[C@H](CO)[C@@H](O)[C@@H]1O[C@@H]1O[C@H](CO)[C@H](O)[C@H](O[C@H]2O[C@H](CO)[C@H](O)[C@H](O)[C@H]2N)[C@H]1O[C@@H]1O[C@@H](C)[C@@H](O)[C@@H](O)[C@@H]1O
Described as above. The data set is classed as biochemical, Flavonifractor plautii. The following applies: other: 100 mM NaH2PO4, pH 7.4, 37° C. The procedure:
as §1, §2, §3, §4

Substrate in data set [6]: CC(=O)N[C@H]1[C@H](Oc2ccc3c(C)cc(=O)oc3c2)O[C@H](CO)[C@@H](O)[C@@H]1O[C@@H]1O[C@H](CO)[C@H](O)[C@H](O[C@H]2O[C@H](CO)[C@H](O)[C@H](O)[C@H]2N)[C@H]1O[C@@H]1O[C@@H](C)[C@@H](O)[C@@H](O)[C@@H]1O
Described as above. It is filed as biochemical, Flavonifractor plautii. As to conditions: other: 100 mM NaH2PO4, pH 7.4, 37° C. The procedure:
as §1, §2, §3, §4

Substrate in data set [7]: CC(=O)N[C@H]1[C@H](Oc2ccc3c(C)cc(=O)oc3c2)O[C@H](CO)[C@H](O)[C@@H]1O[C@@H]1O[C@H](CO)[C@H](O)[C@H](O[C@H]2O[C@H](CO)[C@H](O)[C@H](O)[C@H]2N)[C@H]1O[C@@H]1O[C@@H](C)[C@@H](O)[C@@H](O)[C@@H]1O
The description is as above. The data set is classed as biochemical, Flavonifractor plautii. As to conditions: other: 100 mM NaH2PO4, pH 7.4, 37° C. The protocol: as §1, §2, §3, §4

Substrate in data set [8]: CC(=O)N[C@H]1[C@H](Oc2ccc3c(C)cc(=O)oc3c2)O[C@H](CO)[C@@H](O)[C@@H]1O[C@@H]1O[C@H](CO)[C@H](O)[C@H](O[C@H]2O[C@H](CO)[C@H](O)[C@H](O)[C@H]2O)[C@H]1O[C@@H]1O[C@@H](C)[C@@H](O)[C@@H](O)[C@@H]1O
Described as above. The data set is classed as biochemical, Flavonifractor plautii. The following applies: other: 100 mM NaH2PO4, pH 7.4, 37° C. The procedure: as §1, §2, §3, §4

Results on 3 molecules are retold here after patent US20240294895A1, “ENZYMATIC COMPOSITIONS FOR CARBOHYDRATE ANTIGEN CLEAVAGE ON DONOR ORGANS, METHODS AND USES ASSOCIATED THEREWITH” (THE UNIVERSITY OF BRITISH COLUMBIA, priority 2018, published 2024).

For the molecule `CC(=O)N[C@H]1[C@H](Oc2ccc3c(C)cc(=O)oc3c2)O[C@H](CO)[C@@H](O)[C@@H]1O[C@@H]1O[C@H](CO)[C@H](O)[C@H](O[C@H]2O[C@H](CO)[C@H](O)[C@H](O)[C@H]2O)[C@H]1O[C@@H]1O[C@@H](C)[C@@H](O)[C@@H](O)[C@@H]1O` [B antigen Type1tetra-MU], the “kcat/KM for cleavage of B-antigen, times lower than for the corresponding GalN-antigen” value in data set [1] was “over 2000 times lower”.

With `O=C(O)CN(CCN(CC(=O)O)CC(=O)O)CC(=O)O` [EDTA], the “effect of treatment on enzyme activity” value in data set [2] was “largely obliterated the enzyme activity”.

B1: Flavonifractor plautii Galactosaminidase (FpGalNase), full length, SEQ ID NO: 7, 9, 10 (Flavonifractor plautii) (protein)
chain: MGHHHHHHHHHHSSGAAPATDTGNAGLIAEGDYAIAGNGVRVTYDADGQTITLYRTEGSGLIQMSKPSPLGGPVIGGQEVQDFSHISCDVEQSTSGVMGSGQRMTITSQSMSTGLIRTYVLETSDIEEGVVYTATSYEAGASDVEVSWFIGSVYELYGAEDRIWSYNGGGEGPMHYYDTLQKIDLTDSGKFSRENKQDDTAASIPVSDIYIADGGITVGDASATRREVHTPVQETSDSAQVSIGWPGKVIAAGSVIEIGESFAVVHPGDYYNGLRGYKNAMDHLGVIMPAPGDIPDSSYDLRWESWGWGFNWTIDLIIGKLDELQAAGVKQITLDDGWYTNAGDWALNPEKFPNGASDALRLTDAIHEHGMTALLWWRPCDGGIDSILYQQHPEYFVMDADGRPARLPTPGGGTNPSLGYALCPMADGAIASQVDFVNRAMNDWGFDGFKGDYVWSMPECYNPAHNHASPEESTEKQSEIYRVSYEAMVANDPNVFNLLCNCGTPQDYYSLPYMTQIATADPTSVDQTRRRVKAYKALMGDYFPVTADHNNIWYPSAVGTGSVLIEKRDLSGTAKEEYEKWLGIADTVQLQKGRFIGDLYSYGFDPYETYVVEKDGVMYYAFYKDGSKYSPTGYPDIELKGLDPNKMYRIVDYVNDRVVATNLMGDNAVFNTRFSDYLLVKAVEISEPDPEPVDPDYGFTSVDDRDEALIYTGTWHDDNNASFSEGTARYTNSTDASVVFSFTGTSIRWYGQRDTNFGTAEVYLDDELKTTVDANGAAEAGVCLFEALDLPAAEHTIKIVCKSGVIDIDRFAYEAATLEPIYEKVDALSDRITYVGNWEEYHNSEFYMGNAMRTDEAGAYAELTFRGTAVRLYAEMSFNFGTADVYLDGELVENIILYGQEATGQLMFERTGLEEGEHTIRLVQNAWNINLDYISYLPEQDQPTPPETTVTVDAMDAQLVYTGVWNDDYHDVFQEGTARYASSAGASVEFEFTGSEIRWYGQNDSNFGVASVYIDNEFVQQVNVNGAAAVGKLLFQKADLPAGSHTIRIVCDTPVIDLDYLTYTTNA
The term Km denotes the substrate concentration at which the rate is half of its maximum. Usually kcat stands for the number of substrate molecules converted per active site and unit of time at saturation. The kcat/Km is the turnover number divided by the Michaelis constant. For the molecule B1, the figures for the Michaelis-Menten constant (Km) in data set [3] and in data set [5] were 700 ± 151 µM and 64.5 ± 7.6 µM, respectively. Further, the kcat in data set [3] worked out at 0.029 s⁻¹; in data set [5], 2.35 s⁻¹. The catalytic efficiency (kcat/Km) in data set [3] came out at 40 M⁻¹ s⁻¹; in data set [4] it was 47270 ± 7490 M⁻¹ s⁻¹; in data set [5], 36480 M⁻¹ s⁻¹; in data set [6], 45700 ± 3570 M⁻¹ s⁻¹; in data set [7] it was 30050 ± 2330 M⁻¹ s⁻¹; in data set [8] it was 20 M⁻¹ s⁻¹.
